From patent US20260199429A1

Tests used:
[1] = biological target: Sea Lamprey PYY(1-36) (sea lamprey)
[2] = biological target: Sturgeon PYY(1-36) (sturgeon)

DPP-4 half-life [1]: > 8 h | DPP-4 half-life (Trout PYY (trout)): > 8 h | DPP-4 half-life (Human PYY(1-36) (human)): < 2 h | DPP-4 half-life (Bowfin PYY (bowfin)): > 8 h | DPP-4 half-life [2]: > 8 h
Substance: purified DPP-4 (enzyme)
